Laboratory results reported in patent US12351605B2, “Optically controllable FGFR stimulation using wireless controlled cellular lighting system” (THE JOHNS HOPKINS UNIVERSITY, priority 2020, dated 2025).
Read-outs that look alike come from different tables or passages of the source.

Key:
FGF signaling pathway = assay: Western blot of ERK1/2 and MEK phosphorylation in Opto-FGFR hESCs; format: cell-based, human; details: 10 ng/mL FGF2 after 24 h FGF2 starvation; 15 min intervals up to 120 min
Description: Western blot analysis. The phosphorylation status of MEK and ERK1/2 were determined by Western blot analysis. The cells were starved from FGF2 protein for 24 h, and then exposed to either FGF2 protein or blue light illumination. One μg aliquots of whole cell lysates were loaded onto 4-20% gradient SDS-PAGE gels and then transferred to nitrocellulose membranes (Bio-Rad) using the Trans-Blot® Turbo™ Transfer System (Bio-Rad). The detection of phosphorylated ERK1/2 proteins (42 and 44 kDa) was performed using a phospho-ERK1/2 antibody (Cell Signaling), total ERK1/2 expression level was determined using a total […] antibody (Cell Signaling), detection of pMEK protein (45 kDa) was performed using a pMEK1/2 antibody (Cell Signaling), and total MEK expression level was determined using a total MEK1/2 antibody (Cell Signaling). The expression levels are quantified by normalizing to GAPDH expression (Cell Signaling). Following the primary antibody incubation, the membranes were incubated with the appropriate secondary antibodies and subsequently visualized with an ECL kit (Pierce).
Generation of a light-inducible FGF signaling system. […]

[1] = daily feeding condition, cited from earlier work

Substance: FGF2: recombinant fibroblast growth factor 2 protein, medium component for maintaining pluripotency of PSCs
- activation of FGF signaling (phosphorylation of ERK1/2 and MEK) (FGF signaling pathway): activated FGF signaling
- decrease of FGF2 protein concentration ([1]; 4 h after the initial feeding): approximately 40%
- decrease of FGF2 protein concentration ([1]; 24 h after the initial feeding): approximately 10%
